# In doi:10.1101/2021.01.21.427698 (bioRxiv, 2021):
# B1: human SEPT9_i3 with a noncleavable C-terminal Strep-tag-II (as in the mammalian octamers-9_i3) (natural protein)
# chain: MERDRISALKRSFEVEEVETPNSTPPRRVQTPLLRATVASSTQKFQDLGVKNSEPSARHVDSLSQRSPKASLRRVELSGPKAAEPVSRRTELSIDISSKQVENAGAIGPSRFGLKRAEVLGHKTPEPAPRRTEITIVKPQESAHRRMEPPASKVPEVPTAPATDAAPKRVEIQMPKPAEAPTAPSPAQTLENSEPAPVSQLQSRLEPKPQPPVAEATPRSQEATEAAPSCVGDMADTPRDAGLKQAPASRNEKAPVDFGYVGIDSILEQMRRKAMKQGFEFNIMVVGQSGLGKSTLINTLFKSKISRKSVQPTSEERIPKTIEIKSITHDIEEKGVRMKLTVIDTPGFGDHINNENCWQPIMKFINDQYEKYLQEEVNINRKKRIPDTRVHCCLYFIPATGHSLRPLDIEFMKRLSKVVNIVPVIAKADTLTLEERVHFKQRITADLLSNGIDVYPQKEFDEDSEDRLVNEKFREMIPFAVVGSDHEYQVNGKRILGRKTKWGTIEVENTTHCEFAYLRDLLIRTHMQNIKDITSSIHFEAYRVKRLNEGSSAMANGVEEKEPEAPEM
# Target: the molecule itself
# Assay: negative-stain single-particle electron microscopy
protein,measurement,value
B1,binding result,binds
